Reference: US20080031815A1 (published 2008)

B1: VEGF121 protein (Examples 3 and 5: His-tag containing, expressed from pRSF-Duet1), P15692 207-395 (ligand, not shown: small tags and cut ends)
chain: APMAEGGGQNHHEVVKFMDVYQRSYCHPIETLVDIFQEYPDEIEYIFKPSCVPLMRCGGCCNDEGLECVPTEESNITMQIMRIKPHQGQHIGEMSFLQHNKCECRPKKDRARQEKCDKPRR
B2: VEGF121 protein (Examples 3 and 5: His-tag containing, expressed from pRSF-Duet1) (ligand)
chain: B1 chain
notes: No tag removal is described; also called wild type VEGF121; wild-type VEGF121; not shown: His-tag
B3: VEGFR-2 specific mutant VEGFDEE (D63AE64AE67A mutant of VEGF121) (ligand)
chain: MAPMAEGGGQNHHEVVKFMDVYQRSYCHPIETLVDIFQEYPDEIEYIFKPSCVPLMRCGGCCNAAGLACVPTEESNITMQIMRIKPHQGQHIGEMSFLQHNKCECRPKKDRARQEKCDKPRRGS
notes: also called VEGF121-DEE Mutant; not shown: His-tag
B4: DOTA-VEGF121 (Example 5) (ligand)
chain: B1 chain
modifications: DOTA conjugated; 2.1±0.1 DOTA molecules per monomeric VEGF121; sites not stated
notes: DOTA conjugate of m3; not shown: His-tag
B5: DOTA-VEGFDEE (ligand)
chain: B3 chain
modifications: DOTA conjugated; 2.2±0.1 DOTA molecules per monomeric VEGFDEE; sites not stated
notes: DOTA conjugate of m4; not shown: His-tag
B6: VEGF121 protein (Examples 1 and 2: expressed from pET-32, tag removed with enterokinase) (ligand)
chain: B1 chain
notes: also called unlabeled VEGF121; naive VEGF121
B7: DOTA-VEGF121 (Examples 1 and 2) (ligand)
chain: B1 chain
modifications: DOTA conjugated to lysine residues and/or N-terminal amine groups; 4.33±0.24 DOTA per VEGF121
notes: The conjugation sites are not mapped

Assays:
[1] = molecular target: T1, human VEGFR-1 (FLT-1) expressed on porcine aortic endothelial cells (PAE/FLT-1) (human), P17948; assay: competitive cell binding on PAE/FLT-1 cells, 125I-VEGF165 as radioligand; settings: remark: other sources report otherwise
T1 chain: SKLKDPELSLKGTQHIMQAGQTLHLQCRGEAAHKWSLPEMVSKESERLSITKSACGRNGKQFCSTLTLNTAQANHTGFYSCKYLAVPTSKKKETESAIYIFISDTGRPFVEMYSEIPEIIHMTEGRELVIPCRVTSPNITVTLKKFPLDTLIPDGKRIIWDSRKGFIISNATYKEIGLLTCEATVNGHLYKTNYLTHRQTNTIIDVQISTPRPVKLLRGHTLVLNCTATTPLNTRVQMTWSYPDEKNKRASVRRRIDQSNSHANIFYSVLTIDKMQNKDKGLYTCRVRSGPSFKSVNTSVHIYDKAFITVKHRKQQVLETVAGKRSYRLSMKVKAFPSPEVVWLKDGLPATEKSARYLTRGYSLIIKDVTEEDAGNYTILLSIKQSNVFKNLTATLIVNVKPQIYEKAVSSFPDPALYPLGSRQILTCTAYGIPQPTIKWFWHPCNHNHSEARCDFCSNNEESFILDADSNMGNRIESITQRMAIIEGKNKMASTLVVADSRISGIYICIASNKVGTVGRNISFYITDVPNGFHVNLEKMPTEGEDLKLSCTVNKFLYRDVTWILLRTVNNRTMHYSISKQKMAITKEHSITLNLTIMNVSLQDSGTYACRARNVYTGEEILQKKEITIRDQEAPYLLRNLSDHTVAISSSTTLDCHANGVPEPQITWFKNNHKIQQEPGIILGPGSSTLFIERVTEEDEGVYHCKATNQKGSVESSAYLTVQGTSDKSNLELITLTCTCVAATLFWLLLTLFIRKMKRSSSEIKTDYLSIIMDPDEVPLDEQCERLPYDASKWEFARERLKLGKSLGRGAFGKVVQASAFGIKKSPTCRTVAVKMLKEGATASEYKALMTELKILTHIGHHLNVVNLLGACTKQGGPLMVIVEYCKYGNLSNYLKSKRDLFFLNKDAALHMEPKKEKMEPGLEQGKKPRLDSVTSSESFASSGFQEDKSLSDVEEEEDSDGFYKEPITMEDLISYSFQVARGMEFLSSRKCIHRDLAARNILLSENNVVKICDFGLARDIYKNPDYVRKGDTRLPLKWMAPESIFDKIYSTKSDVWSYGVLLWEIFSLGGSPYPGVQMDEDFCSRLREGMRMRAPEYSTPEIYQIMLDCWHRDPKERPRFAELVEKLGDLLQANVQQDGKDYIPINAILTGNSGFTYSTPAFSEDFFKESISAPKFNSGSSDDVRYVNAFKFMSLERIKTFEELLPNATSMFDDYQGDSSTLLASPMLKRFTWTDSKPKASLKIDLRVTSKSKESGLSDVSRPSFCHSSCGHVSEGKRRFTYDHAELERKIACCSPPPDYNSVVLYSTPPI

[2] = molecular target: T2, human VEGFR-2 (KDR) expressed on porcine aortic endothelial cells (PAE/KDR) (human, UniProt P35968 20-1356); assay: competitive cell binding on PAE-KDR cells, 125I-VEGF165 as radioligand
T2 construct: whole, on cells; also called Flk-1/KDR; PAE/KDR cells
Method: (§1) Porcine aortic endothelial cells (PAE-KDR cells) stably transfected to express human VEGFR2 (KDR) and porcine aortic endothelial cells (PAE cells) not expressing VEGFR1 and VEGFR2 were cultured in Ham's F-12 medium containing 10% fetal bovine serum (Sigma-Aldrich, Saint Louis, Mo.). Using ¹²⁵I-VEGF₁₆₅ as the radioligand, receptor-binding affinity of VEGF₁₂₁ and VEGFNLS for VEGFR2 was performed as described elsewhere for both PAE-KDR and PAE cells (J Med. Chem. 2005; 48:1098-1106, which is include herein by reference). […] Serially diluted VEGF₁₂₁ or VEGFNLS were then added to compete with the radioligand ¹²⁵I-VEGF₁₆₅. After 2 h incubation at room temperature, the plates were washed and bound ¹²⁵I-VEGF₁₆₅/sVEGFR1 complex was dissociated by acidified 0.1% SDS solution, the eluent was collected and the radioactivity was measured by a gamma counter (Cobra II Auto-Gamma; Perkin-Elmer, Wellesley, Mass.). The best-fit 50% inhibitory concentration (IC₅₀) values were calculated by fitting the data by nonlinear regression using GraphPad Prism 4.0 (GraphPad Software, Inc., San Diego, Calif.). Experiments were performed twice with triplicate samples.

[3] = molecular target: T2, human VEGFR-2 (KDR) expressed on …; assay: cell-based or functional assay
[4] = molecular target: T3, soluble VEGFR1D1-D6 (sVEGFR1) (Homo sapiens (Human), UniProt P17948 27-687); assay: plate-coated sVEGFR1, competition with 125I-VEGF165
T3 construct: Coated on 96-well plates
Method: as §1

[5] = molecular target: T2, human VEGFR-2 (KDR) expressed on …; assay: competitive cell binding on PAE/KDR cells, 125I-VEGF165 as radioligand
Method: (§2) The detailed procedure of competitive cell binding assay has been described herein. VEGFR-1 and VEGFR-2 binding affinity of VEGF₁₂₁, VEGFDEE, and the DOTA conjugates was evaluated by PAE/FLT-1 and PAE/KDR cell binding assays using ¹²⁵I-VEGF₁₆₅ (VEGF₁₆₅ protein (SEQ ID No: 4)) as the radioligand. The best-fit IC₅₀ values were calculated by fitting the data by nonlinear regression using GraphPad Prism (GraphPad Software, Inc.). Experiments were carried out with triplicate samples.

[6] = molecular target: T4, human VEGFR-1 (FLT-1) expressed on porcine aortic endothelial cells (PAE/FLT-1) (human, UniProt P17948 27-1338); assay: competitive cell binding on PAE/FLT-1 cells, 125I-VEGF165 as radioligand
T4 construct: whole, on cells; also called PAE/VEGFR-1 cells; PAE/FLT-1 cells
Method: as §2
(§3) Two proteins were prepared for this study: VEGF₁₂₁ and the triple mutant at the 63, 64, and 67 positions (VEGFDEE) (FIG. 17). The His-tag containing proteins were purified to homogeneity. Cell binding assay was then carried out to determine the VEGFR-1 and VEGFR-2 binding affinity (FIGS. 18a and 18b).

[7] = molecular target: T4, human VEGFR-1 (FLT-1) expressed on …; assay: competitive cell binding on PAE/FLT-1 cells
Method: as §2, §3

[8] = molecular target: T2, human VEGFR-2 (KDR) expressed on …; assay: competitive cell binding on PAE/KDR cells
Method: as §2, §3

[9] = molecular target: T2, human VEGFR-2 (KDR) expressed on …; assay: competitive cell binding on PAE/KDR against PAE/FLT-1 cells
Method: as §2, §3

[10] = molecular target: T2, human VEGFR-2 (KDR) expressed on …; assay: competitive cell binding on PAE/KDR cells, 125I-VEGF165 as radioligand (Example 2)

T2 sequence (P35968 20-1356): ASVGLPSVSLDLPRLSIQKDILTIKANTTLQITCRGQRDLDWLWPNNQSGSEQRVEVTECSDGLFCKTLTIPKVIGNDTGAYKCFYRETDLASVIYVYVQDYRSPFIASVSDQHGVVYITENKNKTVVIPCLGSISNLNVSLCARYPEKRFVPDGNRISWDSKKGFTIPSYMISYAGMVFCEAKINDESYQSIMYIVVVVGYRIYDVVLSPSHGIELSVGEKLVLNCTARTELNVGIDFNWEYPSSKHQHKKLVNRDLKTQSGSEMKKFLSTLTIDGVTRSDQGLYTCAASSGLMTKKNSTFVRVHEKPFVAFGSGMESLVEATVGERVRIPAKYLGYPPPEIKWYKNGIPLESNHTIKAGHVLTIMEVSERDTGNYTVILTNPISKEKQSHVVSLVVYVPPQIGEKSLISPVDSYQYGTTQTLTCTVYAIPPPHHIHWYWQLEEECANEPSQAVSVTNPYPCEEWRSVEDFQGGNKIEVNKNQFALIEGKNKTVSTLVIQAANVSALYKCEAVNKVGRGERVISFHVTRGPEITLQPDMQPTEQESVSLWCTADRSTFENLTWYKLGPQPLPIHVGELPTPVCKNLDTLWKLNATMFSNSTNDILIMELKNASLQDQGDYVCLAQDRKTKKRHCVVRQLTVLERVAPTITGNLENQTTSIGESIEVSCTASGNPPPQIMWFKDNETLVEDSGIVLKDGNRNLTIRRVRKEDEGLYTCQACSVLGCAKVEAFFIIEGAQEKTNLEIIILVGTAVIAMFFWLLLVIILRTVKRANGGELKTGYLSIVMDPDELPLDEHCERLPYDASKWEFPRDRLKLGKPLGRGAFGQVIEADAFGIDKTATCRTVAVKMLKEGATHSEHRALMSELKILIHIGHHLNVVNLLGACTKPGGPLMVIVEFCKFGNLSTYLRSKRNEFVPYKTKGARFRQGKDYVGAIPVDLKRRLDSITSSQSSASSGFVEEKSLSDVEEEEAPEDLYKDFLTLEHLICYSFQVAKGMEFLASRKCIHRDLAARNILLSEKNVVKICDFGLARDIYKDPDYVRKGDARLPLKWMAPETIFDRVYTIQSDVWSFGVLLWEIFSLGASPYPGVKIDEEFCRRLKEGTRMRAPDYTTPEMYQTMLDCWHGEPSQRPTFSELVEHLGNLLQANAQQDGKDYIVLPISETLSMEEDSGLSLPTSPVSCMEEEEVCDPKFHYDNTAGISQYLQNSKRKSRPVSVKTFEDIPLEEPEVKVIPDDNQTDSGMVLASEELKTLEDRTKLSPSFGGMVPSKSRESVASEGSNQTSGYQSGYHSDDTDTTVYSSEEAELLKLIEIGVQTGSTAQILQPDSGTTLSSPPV

Binder | functional assay using PAE/KDR cells (FIG. 18e) [3] | phosphorylated VEGFR-2 (Western blot, PAE/KDR cells) [3] | IC50 [5] | further results
B1 |  |  |  | IC50 [1]: 4.2 nM
B2 | > 5 nM | > 10 nM |  | IC50 [2]: 2.9 nM; IC50 [4]: 4 nM
B3 | > 5 nM | > 10 nM | 11.7 nM | IC50 [6]: 78.1 nM; fold lower binding against VEGF121 [7]: ~20 fold; fold lower binding affinity against VEGF121 [8]: 4 fold; fold higher binding affinity against VEGFR-1 [9]: ~7 fold
B4 | > 5 nM | > 10 nM | 5 nM | 
B5 | > 5 nM | > 10 nM | 10.3 nM | 
B6 |  |  | 1.02 nM | IC50 [10]: 1.11 nM
B7 |  |  | 1.66 nM | IC50 [10]: 1.59 nM
